Measured values as given in patent publication US20180360932A1 (OPKO BIOLOGICS, published 2018).

Biological target: MOD-5014 (FVIIa-CTP3, activated Factor VII-CTP-CTP-CTP) (human) (UniProt P08709)
Assay: cell-based or functional assay

Sequence of Tissue factor pathway inhibitor (TFPI) (P10646 29-304 limits assumed): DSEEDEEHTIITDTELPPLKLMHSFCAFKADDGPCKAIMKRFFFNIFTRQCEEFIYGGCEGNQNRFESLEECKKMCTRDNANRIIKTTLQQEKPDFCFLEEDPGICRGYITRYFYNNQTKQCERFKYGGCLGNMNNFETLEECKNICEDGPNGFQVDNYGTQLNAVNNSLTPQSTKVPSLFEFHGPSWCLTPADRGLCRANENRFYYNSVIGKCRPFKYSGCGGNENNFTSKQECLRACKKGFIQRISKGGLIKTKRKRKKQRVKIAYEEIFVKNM

sensitivity of FVIIa/TF generation of FXa to TFPI inhibition, relative to MOD-5000: 124%
Substance: Tissue factor pathway inhibitor (TFPI) (from UniProt P10646 29-304)
